In this experiment the target is wild-type T7 DNA polymerase (gp5 with E. coli thioredoxin) (bacteriophage T7 | E. coli) (UniProt P00581).
Chain of wild-type T7 DNA polymerase (gp5 with E. coli thioredoxin) (bacteriophage T7 | E. coli) (P00581 whole entry, chain 1 of 2): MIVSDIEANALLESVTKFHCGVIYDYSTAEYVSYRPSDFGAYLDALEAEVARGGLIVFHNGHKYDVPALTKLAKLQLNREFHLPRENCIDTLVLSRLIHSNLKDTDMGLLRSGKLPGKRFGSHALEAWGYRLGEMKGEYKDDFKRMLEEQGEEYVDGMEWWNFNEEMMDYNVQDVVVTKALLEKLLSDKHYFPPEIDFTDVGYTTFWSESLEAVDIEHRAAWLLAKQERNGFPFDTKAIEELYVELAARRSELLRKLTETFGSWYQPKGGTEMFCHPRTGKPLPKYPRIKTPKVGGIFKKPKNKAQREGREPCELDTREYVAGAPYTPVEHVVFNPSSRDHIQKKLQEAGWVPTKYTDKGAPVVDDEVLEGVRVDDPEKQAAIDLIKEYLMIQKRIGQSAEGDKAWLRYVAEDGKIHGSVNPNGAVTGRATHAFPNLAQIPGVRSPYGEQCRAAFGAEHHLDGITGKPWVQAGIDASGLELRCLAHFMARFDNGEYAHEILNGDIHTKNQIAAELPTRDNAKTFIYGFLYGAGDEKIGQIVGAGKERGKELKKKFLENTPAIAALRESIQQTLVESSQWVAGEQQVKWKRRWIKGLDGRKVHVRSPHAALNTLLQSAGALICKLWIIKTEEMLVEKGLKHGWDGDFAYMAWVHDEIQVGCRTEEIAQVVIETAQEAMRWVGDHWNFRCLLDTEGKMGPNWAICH
Chain of wild-type T7 DNA polymerase (gp5 with E. coli thioredoxin) (bacteriophage T7 | E. coli) (P0AA25 whole entry, chain 2 of 2, further chain): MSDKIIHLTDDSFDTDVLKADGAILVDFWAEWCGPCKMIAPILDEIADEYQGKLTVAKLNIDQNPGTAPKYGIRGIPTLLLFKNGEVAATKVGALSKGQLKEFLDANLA

Chain of wild-type T7 helicase (gp4) (P03692 whole entry): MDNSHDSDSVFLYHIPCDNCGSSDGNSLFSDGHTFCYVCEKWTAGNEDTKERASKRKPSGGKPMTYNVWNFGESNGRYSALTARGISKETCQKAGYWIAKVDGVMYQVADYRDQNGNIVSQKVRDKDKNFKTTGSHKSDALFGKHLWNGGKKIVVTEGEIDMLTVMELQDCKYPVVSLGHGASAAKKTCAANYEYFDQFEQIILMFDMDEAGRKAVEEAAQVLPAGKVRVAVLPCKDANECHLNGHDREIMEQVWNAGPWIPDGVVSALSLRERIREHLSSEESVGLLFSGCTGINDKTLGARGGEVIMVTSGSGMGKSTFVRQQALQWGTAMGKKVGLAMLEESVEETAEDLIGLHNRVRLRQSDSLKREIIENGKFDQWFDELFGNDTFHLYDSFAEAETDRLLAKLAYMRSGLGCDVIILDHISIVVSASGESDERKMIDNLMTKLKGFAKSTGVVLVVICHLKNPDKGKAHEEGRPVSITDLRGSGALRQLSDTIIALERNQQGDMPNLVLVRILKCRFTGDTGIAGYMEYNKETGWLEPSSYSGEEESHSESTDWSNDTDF

Take “wild-type T7 helicase (gp4) (from UniProt P03692 1-566) (enzyme)”: the fraction of single-molecule traces with continued leading-strand synthesis at high rate past a leading-strand CPD lesion, wt DNAP with wt helicase, 6 pN, 0.5 mM dNTP was 28 % of traces.

The record behind these values is publication PMC4703881.
